B1: Ab4 (antibody, human IgG1, V domains shown)
VH: QVQLVQSGAEVKKTGSSVKVSCKASGYTFTDHAIHWVRQAPGQALEWMGHFSPGNTDIKYNDKFKGRVTLTVDRSMSTAYMELSSLRSEDTAMYYCKTSTFFFDYWGQGTMVTVSS
VL: DIVMTQSPLSLPVTPGEPASISCKSSQSLLNSGDQKNYLTWYLQKPGQSPQLLIYWASTRESGVPDRFSGSGSGTDFTLKISRVEAEDVGVYYCQNDYSYPLTFGGGTKVEIK
notes: Expressed as human IgG1/kappa from pFUSE-CHIg-hG1 and pFUSE2-CLIg-hk vectors; also called 5E5RHA8 / 5E5RKB
B2: Ab1 (antibody, V domains shown)
VH: B1 VH
VL: DIVMTQSPDSLAVSLGERATINCKSSQSLLNSGDQKNYLTWYQQKPGQPPKLLIYWASTRESGVPDRFSGSGSGTDFTLTISSLQAEDVAVYYCQNDYSYPLTFGQGTKVEIK
notes: Expressed as human IgG1/kappa from pFUSE-CHIg-hG1 and pFUSE2-CLIg-hk vectors; also called 5E5RHA8 / 5E5RKA
B3: Ab5 (antibody, human IgG1, V domains shown)
VH: EVQLVQSGAEVKKPGESLKISCKISGYIFTDHAIHWVRQMPGKGLEWMGHFSPGNTDIKYNDKFKGQVTLSVDRSINTAYLQWSSLKASDTAIYFCKTSTFFFDYWGQGTRVTVSS
VL: B1 VL
notes: Expressed as human IgG1/kappa from pFUSE-CHIg-hG1 and pFUSE2-CLIg-hk vectors; also called 5E5RHB10 / 5E5RKB
B4: Ab6 (antibody, human IgG1, V domains shown)
VH: EVQLVESGAEVKKPGASVEVSCQASGYTFTDHAIHWVRQAPGQGLEWMGHFSPGNTDIKYNDKFKGRVTMTVDRSINTAYMELRRLRSDDTAVYYCKTSTFFFDYWGQGTMVTVSS
VL: B1 VL
notes: Expressed as human IgG1/kappa from pFUSE-CHIg-hG1 and pFUSE2-CLIg-hk vectors; also called 5E5RHC9 / 5E5RKB
B5: Mouse 5E5 (antibody, V domains shown)
VH: QVQLQQSDAELVKPGSSVKISCKASGYTFTDHAIHWVKQKPEQGLEWIGHFSPGNTDIKYNDKFKGKATLTVDRSSSTAYMQLNSLTSEDSAVYFCKTSTFFFDYWGQGTTLTVSS
VL: DIVMTQSPSSLTVTAGEKVTMICKSSQSLLNSGDQKNYLTWYQQKPGQPPKLLIFWASTRESGVPDRFTGSGSGTDFTLTISSVQAEDLAVYYCQNDYSYPLTFGAGTKLELK
notes: V regions were subcloned into pFUSE-CHIg-hG1 (human IgG1) and pFUSE2-CLIg-hk (human kappa) vectors and expressed in HEK293 cells; also called mouse 5E5 antibody; 5E5VH/5E5VK
B6: Ab2 (antibody, V domains shown)
VH: B3 VH
VL: B2 VL
notes: Expressed as human IgG1/kappa from pFUSE-CHIg-hG1 and pFUSE2-CLIg-hk vectors; also called 5E5RHB10 / 5E5RKA
B7: Ab3 (antibody, V domains shown)
VH: B4 VH
VL: B2 VL
notes: Expressed as human IgG1/kappa from pFUSE-CHIg-hG1 and pFUSE2-CLIg-hk vectors; also called 5E5RHC9 / 5E5RKA

The binders below were run against T1, Tn-MUC1 on ZR-75-1 cells (human, UniProt P15941 24-1255, Tn glycoform (GalNAcα1-O-Ser/Thr) as expressed by the cells) (assay: flow cytometry on ZR-75-1 cells (protocol 6)).
T1 construct: whole, on cells; also called ZR-75-1 cell line, which expresses Tn-MUC1; Tn-MUC1(+ve) cell line ZR75-1
T1 sequence (P15941 24-1255): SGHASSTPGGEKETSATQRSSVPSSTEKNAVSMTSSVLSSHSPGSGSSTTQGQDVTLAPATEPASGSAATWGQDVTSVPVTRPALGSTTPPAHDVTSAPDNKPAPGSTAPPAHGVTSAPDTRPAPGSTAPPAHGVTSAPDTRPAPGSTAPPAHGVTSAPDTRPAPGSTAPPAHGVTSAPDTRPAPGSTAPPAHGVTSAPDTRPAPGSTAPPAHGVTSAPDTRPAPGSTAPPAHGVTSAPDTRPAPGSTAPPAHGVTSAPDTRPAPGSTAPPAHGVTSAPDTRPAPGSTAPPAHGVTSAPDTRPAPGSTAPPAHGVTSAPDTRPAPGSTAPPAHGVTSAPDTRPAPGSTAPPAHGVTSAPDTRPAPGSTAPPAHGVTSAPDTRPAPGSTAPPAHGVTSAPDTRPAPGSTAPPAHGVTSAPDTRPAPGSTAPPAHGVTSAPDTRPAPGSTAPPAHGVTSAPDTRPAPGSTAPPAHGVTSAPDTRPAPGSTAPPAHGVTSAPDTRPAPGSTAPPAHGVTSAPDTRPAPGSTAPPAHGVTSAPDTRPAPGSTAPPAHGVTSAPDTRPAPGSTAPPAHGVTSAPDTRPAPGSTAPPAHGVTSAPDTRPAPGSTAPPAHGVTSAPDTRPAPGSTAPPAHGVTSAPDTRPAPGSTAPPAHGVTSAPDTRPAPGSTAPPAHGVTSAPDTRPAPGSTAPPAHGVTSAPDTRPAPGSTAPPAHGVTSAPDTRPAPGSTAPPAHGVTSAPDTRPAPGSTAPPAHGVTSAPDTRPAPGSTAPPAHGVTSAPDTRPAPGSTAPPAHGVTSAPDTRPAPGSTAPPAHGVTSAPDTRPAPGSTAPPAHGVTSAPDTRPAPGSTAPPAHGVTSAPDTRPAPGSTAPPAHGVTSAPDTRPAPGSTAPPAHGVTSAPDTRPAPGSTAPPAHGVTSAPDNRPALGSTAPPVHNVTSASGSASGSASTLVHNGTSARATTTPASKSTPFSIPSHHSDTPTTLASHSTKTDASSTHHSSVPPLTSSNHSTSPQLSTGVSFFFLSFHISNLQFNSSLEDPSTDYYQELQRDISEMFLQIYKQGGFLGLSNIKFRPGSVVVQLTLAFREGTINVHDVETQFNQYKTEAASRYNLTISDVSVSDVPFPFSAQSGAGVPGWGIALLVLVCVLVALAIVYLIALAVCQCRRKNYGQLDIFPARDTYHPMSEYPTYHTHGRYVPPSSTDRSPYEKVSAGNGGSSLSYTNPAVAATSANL
Method: Exponentially growing cells are suspended by incubation with cell dissociation buffer enzyme-free, Hanks-based (Gibco 13150-016) following the manufacturer's instructions. A cell count/viability is done on a dilution of 10 ul cells+Trypan Blue, 10 ul, with a haemocytomer. The suspension is centrifuged and the cell pellet re-suspended in binding buffer at 3×10̂6 per ml. If significant levels of aggregates are present in the cell count, the suspension is filtered to remove aggregates. The cell suspension is dispensed (50 ul/well) in 96 well U-bottom plates and cooled on ice for 10 minutes. Primary antibody (50 ul/well) diluted in binding buffer (typically 1 ug per ml or less) is added to each well and incubated at 4° C. for 1 hour. The microplate is centrifuged 5 min at 300-400 g at 4° C., flicked to remove the supernatant and then the cell pellet re-suspended in 200 uL of wash buffer (PBS, 0.1% sodium azide). Centrifugation and re-suspension are done 4 times in all. After the last centrifugation, cells are re-suspended in 50 uL of binding buffer containing the biotin labelled conjugate 1:250 (kept at −20 C: Biotin-SP-AffiniPure F(ab′)2 Fragment Goat antihuman IgG (H+L); Jackson 109-066-088). Cells are incubated for 1 hour at 4 C, then washed 4 times as before. Cells are resuspended in 50 ul of binding buffer containing Streptavidin, Alexa Fluor® 488 conjugate (Life Technologies s11223) diluted 1:250 and Fixable Viability Dye eFluor@780 (eBioscience 65-0865) diluted 1:2000, The cells are incubated at 4° C. for 1 hour and then washed 3 times, as above. Cells are then re-suspended in PBS if reading immediately or fixed in 100 ul of paraformaldehyde (2% (w/v) in PBS) and analysed with by flow cytometer (Accuri C6), gating on live cells which have a lower Fixable Viability Dye MFI compared to dead cells.
IgG binding potency to Tn-MUC1 was measured as per protocol 4 and binding to the ZR-75-1 cell line, which expresses Tn-MUC1, was measured as per protocol 6.

Q: How did the EC50 turn out when B1 was run?
A: 0.0423 µg/mL

Q: Which EC50 does the source give for B2 here?
A: 0.00986 µg/mL

Q: How did the EC50 turn out when B3 was run?
A: 0.0184 µg/mL

Q: With B4 as the binder, how does the EC50 read?
A: 0.0413 µg/mL

Q: B5 was tested. Which EC50 did it give?
A: 0.0283 µg/mL

Q: For B6, which EC50 is on record?
A: 0.0168 µg/mL

Q: B7 was tested. Which EC50 did it give?
A: 0.0268 µg/mL
